Results published in patent publication US8357518B2, “Thermostable enzymes for the hydrolysis of mannan-containing polysaccharides” (The Board of Trustees of the University of Illinois, priority 2010, dated 2013).

Assays:
[1] = substrate: O=[N+]([O-])c1ccc(O[C@@H]2O[C@H](CO)[C@@H](O[C@@H]3O[C@H](CO)[C@@H](O)[C@H](O)[C@H]3O)[C@H](O)[C@H]2O)cc1; assay: Catalytic efficiency with pNP-linked sugars (Man5A-TM2); format: biochemical, Caldanaerobius polysaccharolyticus; settings: other: Man5A-TM2, pNP substrates, citrate buffer 50 mM, pH 5.5, 65° C., triplicate
Method: (§1) The plasmid constructs were then introduced into E. coli BL-21 CodonPlus (DE3) RIL competent cells by heat shock, and grown overnight in lysogeny broth (LB) agar medium supplemented with ampicillin (100 μg/mL) and chloramphenicol (50 μg/mL) at 37° C. After 12 h, single colonies were selected and used to inoculate fresh LB (10 mL) supplemented with the antibiotics above at the same concentrations, followed by culturing with aeration for 8 h at 37° C. The pre-cultures were then inoculated into fresh LB (1 L) supplemented with ampicillin and chloramphenicol and the cultures were incubated at 37° C. with vigorous aeration (225 rpm/min). […] Aliquots of eluted fractions were analyzed by sodium dodecyl sulfate-polyacrylamide gel electrophoresis (SDS-PAGE) and protein bands were visualized by staining with Coomassie brilliant blue G-250. […] The UV absorbances of the protein solutions were recorded at 280 nm using a Nanoprop 1000 from Thermo Scientific (Waltham, Mass.) and the protein concentrations were calculated using the following extinction coefficients: Man5A-TM1, ε280 nm=189 mM^−1 cm^−1; Man5A-TM2, ε280 nm=113 mM^−1 cm^−1; Man5B, ε280 nm=103 mM^−1 cm^−1.
(§2) Hydrolysis of para-nitrophenyl (pNP) linked sugars. […] The extinction coefficient of pNP at pH 5.5 was determined as 1636 M^−1 cm^−1.

[2] = substrate: O=[N+]([O-])c1ccc(O[C@@H]2O[C@H](CO)[C@@H](O)[C@H](O)[C@@H]2O)cc1; assay: as above; format: biochemical, Caldanaerobius polysaccharolyticus; settings: other: Man5A-TM2, pNP substrates, citrate buffer 50 mM, pH 5.5, 65° C., triplicate
Method: as §1, §2

B1: Caldanaerobius polysaccharolyticus endo-β-mannanase Man5A truncation mutant Man5A-TM2, SEQ ID NO: 29 (Caldanaerobius polysaccharolyticus) (protein)
chain: AGTSGDGRFHVVGNKIVDPDGKDFIIKGVNIQGYRSWEKRSVLQDVHLIADVWKFNTVRLNCFIGQNNWGEGTGANNDIDAIIKAFTAKKVVVEIDLHDTTGYPPLSNPPPAPGQPSLDQAIAWFKELAAKYKDNPYVWFNTMNEPGSSTAPLDPQWKVANEEIIKAIRSTGADNIIVVDGWSYANEGIEQNTPTVDEKRSAVLTYGQDLLNADSAKNTIFAFHNYNEGDIQKKVEDYIDRANAKGLYVFMEEYGKDYSDAAKEGVKSGLQAVMNKGAGRIYWNWDGYDLYDLTSGTGRGSGWEINKTDGSKPTNLSWVGDKIWDDNHGITPTFDDQNPKVDLALERLIANNNGFKAGDKVQFTTFLRNSGDLPIGKDSKVVVKFYVDGVQLGDPVEISGGIAVGQRIPVTSPELTVSKTDFTVKAVIDSSSTYADGAEDAVIENNWIEAAFNSTAPSSGYELVVTGIKITPDTVKEGDYVQAQVTVANQGPEATPVTNIIGWFYVNGYYYTLDDAAKSCAEQDNVTLKPGESITLSTKVKYRAAAPFNFSFVLENLYADDQNQSNNSITVNVPVK
- kcat/Km [1]: (2.5 ± 0.3) × 10^−2 mM^−1 s^−1
- kcat/Km [2]: (1.1 ± 0.2) × 10^−2 mM^−1 s^−1
